Results from article doi:10.1101/2021.07.08.451649 (bioRxiv, 2021).

Biological target: SARS-CoV-2 HexaPro spike glycoprotein (SARS-CoV-2, ancestral (Wuhan-Hu-1), …, stabilised)
Assay: cryo-EM structure

B1: PVI.V6-14 Fab (Fab, V domains shown)
VH: QVQLQESGPGLVKPSETLSLTCTVSGGSISSSSYYWGWIRQPPGKGLEWIGSIYYSGSTYYNPSLKSRVTISVDTSKNQFSLKLSSVTAADTAVYYCARCRPEYYFGSGSYLDFDY
VL: DIQMTQSPSSVSASVGDRVTITCRASQGISSWLAWYQQKPGKAPKLLIYAASSLQSGVPSRFSGSGSGTDFTLTISSLQPEDFATYYCQQANSFPLTFGGGTKVEIK
  stoichiometry N: 2 Fabs per spike trimer
